Laboratory results published in PMC3173232.

What was measured:
[1] = target: XLF(1-224);XRCC4(1-140) (Homo sapiens;Homo sapiens, UniProt Q9H9Q4;Q13426 1-224;1-140, |); assay: SAXS titration
[2] = target: Ku70/80 heterodimer;XLF FL;XRCC4(1-140) (Homo sapiens (HeLa);Homo sapiens;Homo …, UniProt P12956;P13010;Q9H9Q4;Q13426 2-609;2-732;1-299;1-140, ||); assay: SEC co-elution and SAXS
[3] = target: XRCC4 FL;XLF(1-248) (Homo sapiens;Homo sapiens, UniProt Q13426;Q9H9Q4 1-336;1-248, |); assay: tryptophan fluorescence quenching
XRCC4 FL;XLF(1-248), sequence (Q13426 whole entry, chain 1 of 2): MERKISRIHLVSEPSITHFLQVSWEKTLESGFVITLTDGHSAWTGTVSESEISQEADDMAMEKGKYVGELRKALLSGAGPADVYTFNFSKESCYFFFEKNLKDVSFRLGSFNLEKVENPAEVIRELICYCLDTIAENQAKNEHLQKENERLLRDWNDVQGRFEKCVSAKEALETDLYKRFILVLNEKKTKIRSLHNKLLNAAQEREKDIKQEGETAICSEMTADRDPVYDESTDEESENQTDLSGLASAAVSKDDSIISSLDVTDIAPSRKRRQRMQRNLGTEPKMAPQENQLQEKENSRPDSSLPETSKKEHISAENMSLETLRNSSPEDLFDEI
XRCC4 FL;XLF(1-248), sequence (Q9H9Q4 1-248, chain 2 of 2): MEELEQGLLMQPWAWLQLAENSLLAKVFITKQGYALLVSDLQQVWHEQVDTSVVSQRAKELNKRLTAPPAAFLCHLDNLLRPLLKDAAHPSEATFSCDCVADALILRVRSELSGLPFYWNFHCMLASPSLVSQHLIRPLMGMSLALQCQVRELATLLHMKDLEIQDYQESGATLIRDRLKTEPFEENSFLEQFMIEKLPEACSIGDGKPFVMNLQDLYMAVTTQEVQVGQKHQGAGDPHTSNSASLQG

[4] = target: XLF FL (Homo sapiens, UniProt Q9H9Q4 1-299); assay: tryptophan fluorescence quenching
XLF FL, sequence (Q9H9Q4 whole entry): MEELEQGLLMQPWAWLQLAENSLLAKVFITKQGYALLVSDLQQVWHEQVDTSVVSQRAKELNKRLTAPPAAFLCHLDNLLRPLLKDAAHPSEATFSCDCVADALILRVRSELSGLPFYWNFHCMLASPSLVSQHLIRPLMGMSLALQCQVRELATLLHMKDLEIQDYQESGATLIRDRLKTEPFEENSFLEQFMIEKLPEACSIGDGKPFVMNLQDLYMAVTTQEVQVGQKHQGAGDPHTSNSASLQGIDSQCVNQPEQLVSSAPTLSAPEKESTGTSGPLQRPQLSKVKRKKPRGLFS

[5] = target: XLF(1-248) (Homo sapiens, UniProt Q9H9Q4 1-248); assay: tryptophan fluorescence quenching
XLF(1-248), sequence (Q9H9Q4 1-248): as the sequence (Q9H9Q4 1-248, chain 2 of 2) above

[6] = target: XRCC4 FL (Homo sapiens, UniProt Q13426 1-336); assay: tryptophan fluorescence quenching
XRCC4 FL, sequence (Q13426 whole entry): as the sequence (Q13426 whole entry, chain 1 of 2) above

[7] = target: XLF FL;XRCC4(1-140) (Homo sapiens;Homo sapiens, UniProt Q9H9Q4;Q13426 1-299;1-140, |); assay: SAXS titration
XLF FL;XRCC4(1-140), sequence (Q9H9Q4 whole entry, chain 1 of 2): as the sequence (Q9H9Q4 whole entry) above
XLF FL;XRCC4(1-140), sequence (Q13426 1-140, chain 2 of 2): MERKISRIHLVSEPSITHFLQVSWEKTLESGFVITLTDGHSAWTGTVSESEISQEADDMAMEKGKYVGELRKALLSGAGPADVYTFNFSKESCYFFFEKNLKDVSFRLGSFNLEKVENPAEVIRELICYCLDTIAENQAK

Ku70/80 heterodimer;XLF FL;XRCC4(1-140), sequence (P12956 2-609, chain 1 of 4): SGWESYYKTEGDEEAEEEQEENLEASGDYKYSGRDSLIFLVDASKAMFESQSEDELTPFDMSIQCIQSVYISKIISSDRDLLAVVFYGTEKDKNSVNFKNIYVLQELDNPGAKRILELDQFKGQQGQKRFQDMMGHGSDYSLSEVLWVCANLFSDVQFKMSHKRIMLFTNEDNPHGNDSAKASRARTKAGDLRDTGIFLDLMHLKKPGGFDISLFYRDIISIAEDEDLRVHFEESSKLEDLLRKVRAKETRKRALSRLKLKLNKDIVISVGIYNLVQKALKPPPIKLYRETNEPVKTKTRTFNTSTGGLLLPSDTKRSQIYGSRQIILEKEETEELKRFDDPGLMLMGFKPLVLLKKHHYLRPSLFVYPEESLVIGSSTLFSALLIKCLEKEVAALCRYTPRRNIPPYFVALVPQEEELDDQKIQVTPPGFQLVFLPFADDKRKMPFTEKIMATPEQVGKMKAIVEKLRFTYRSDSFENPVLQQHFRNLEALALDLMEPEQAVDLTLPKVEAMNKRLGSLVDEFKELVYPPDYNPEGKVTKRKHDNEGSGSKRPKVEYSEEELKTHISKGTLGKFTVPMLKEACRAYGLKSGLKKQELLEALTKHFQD
Ku70/80 heterodimer;XLF FL;XRCC4(1-140), sequence (P13010 2-732, chain 2 of 4): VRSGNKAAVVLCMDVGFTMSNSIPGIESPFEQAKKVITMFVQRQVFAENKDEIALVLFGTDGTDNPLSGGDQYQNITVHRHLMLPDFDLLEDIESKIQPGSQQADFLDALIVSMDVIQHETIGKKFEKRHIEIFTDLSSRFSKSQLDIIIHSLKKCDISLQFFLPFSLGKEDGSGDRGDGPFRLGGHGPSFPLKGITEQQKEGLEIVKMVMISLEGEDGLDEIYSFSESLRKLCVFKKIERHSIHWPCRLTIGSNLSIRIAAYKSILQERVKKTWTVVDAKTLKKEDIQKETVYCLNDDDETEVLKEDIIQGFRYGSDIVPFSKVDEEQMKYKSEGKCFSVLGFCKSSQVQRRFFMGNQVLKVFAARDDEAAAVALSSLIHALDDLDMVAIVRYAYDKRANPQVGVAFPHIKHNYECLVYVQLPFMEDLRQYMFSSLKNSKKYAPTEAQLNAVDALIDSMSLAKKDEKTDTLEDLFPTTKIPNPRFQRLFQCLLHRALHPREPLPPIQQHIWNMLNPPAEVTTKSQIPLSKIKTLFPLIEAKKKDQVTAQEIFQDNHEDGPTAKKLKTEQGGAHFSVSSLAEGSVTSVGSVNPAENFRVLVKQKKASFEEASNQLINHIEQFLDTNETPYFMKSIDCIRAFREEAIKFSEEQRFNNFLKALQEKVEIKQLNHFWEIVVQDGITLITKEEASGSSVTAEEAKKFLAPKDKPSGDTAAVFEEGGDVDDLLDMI
Ku70/80 heterodimer;XLF FL;XRCC4(1-140), sequence (Q9H9Q4 whole entry, chain 3 of 4): as the sequence (Q9H9Q4 whole entry) above
Ku70/80 heterodimer;XLF FL;XRCC4(1-140), sequence (Q13426 1-140, chain 4 of 4): as the sequence (Q13426 1-140, chain 2 of 2) above
XLF(1-224);XRCC4(1-140), sequence (Q9H9Q4 1-224, chain 1 of 2): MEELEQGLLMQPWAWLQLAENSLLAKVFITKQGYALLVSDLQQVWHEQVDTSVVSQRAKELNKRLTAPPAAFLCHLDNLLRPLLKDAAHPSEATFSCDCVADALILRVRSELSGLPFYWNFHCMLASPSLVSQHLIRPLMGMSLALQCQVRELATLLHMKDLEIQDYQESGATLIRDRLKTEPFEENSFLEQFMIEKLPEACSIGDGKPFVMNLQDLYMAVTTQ
XLF(1-224);XRCC4(1-140), sequence (Q13426 1-140, chain 2 of 2): as the sequence (Q13426 1-140, chain 2 of 2) above

B1: 40-bp DNA (dsDNA)
DNA 1: GGATACACAACAGACCGCAACACTCAGATTACTTTTCGCC
DNA 2: GGCGAAAAGTAATCTGAGTGTTGCGGTCTGTTGTGTATCC
- binding result [1]: binds
- binding result [2]: binds
- Kd [3]: 700 ± 50 nM
- Kd [4]: 1600 ± 100 nM
- Kd [5]: 2900 ± 200 nM
- Kd [6]: 950 ± 50 nM
- binding result [7]: binds
